# Experimental data taken from PMC11582362 (2023).
# B1: full length ADAR1 p110, wild type (FLAG-tagged and HA-tagged copies) [human] / itself (parent complex)
# chain: MAEIKEKICDYLFNVSDSSALNLAKNIGLTKARDINAVLIDMERQGDVYRQGTTPPIWHLTDKKRERMQIKRNTNSVPETAPAAIPETKRNAEFLTCNIPTSNASNNMVTTEKVENGQEPVIKLENRQEARPEPARLKPPVHYNGPSKAGYVDFENGQWATDDIPDDLNSIRAAPGEFRAIMEMPSFYSHGLPRCSPYKKLTECQLKNPISGLLEYAQFASQTCEFNMIEQSGPPHEPRFKFQVVINGREFPPAEAGSKKVAKQDAAMKAMTILLEEAKAKDSGKSEESSHYSTEKESEKTAESQTPTPSATSFFSGKSPVTTLLECMHKLGNSCEFRLLSKEGPAHEPKFQYCVAVGAQTFPSVSAPSKKVAKQMAAEEAMKALHGEATNSMASDNQPEGMISESLDNLESMMPNKVRKIGELVRYLNTNPVGGLLEYARSHGFAAEFKLVDQSGPPHEPKFVYQAKVGGRWFPAVCAHSKKQGKQEAADAALRVLIGENEKAERMGFTEVTPVTGASLRRTMLLLSRSPEAQPKTLPLTGSTFHDQIAMLSHRCFNTLTNSFQPSLLGRKILAAIIMKKDSEDMGVVVSLGTGNRCVKGDSLSLKGETVNDCHAEIISRRGFIRFLYSELMKYNSQTAKDSIFEPAKGGEKLQIKKTVSFHLYISTAPCGDGALFDKSCSDRAMESTESRHYPVFENPKQGKLRTKVENGEGTIPVESSDIVPTWDGIRLGERLRTMSCSDKILRWNVLGLQGALLTHFLQPIYLKSVTLGYLFSQGHLTRAICCRVTRDGSAFEDGLRHPFIVNHPKVGRVSIYDSKRQSGKTKETSVNWCLADGYDLEILDGTRGTVDGPRNELSRVSKKNIFLLFKKLCSFRYRRDLLRLSYGEAKKAARDYETAKNYFKKGLKDMGYGNWISKPQEEKNFYLCPV
# Variants of: B1
# Assay: co-immunoprecipitation (anti-FLAG IP, anti-HA western blot, bands quantified with ImageJ); HEK293T cells; in the presence of RNases; n = 3; parent: 70; read off a plot
row,Variant,response [%]
1,"chain 1 V452A, chain 1 D453Q, chain 1 W473V, chain 1 C478S",~10
